# Data taken from patent US7893032B2, “NgR variants and compositions thereof for suppressing axonal growth inhibition” (Yale University, priority 2005, dated 2011).
# Substitutions are numbered along the chain they refer to. In names and notes the source's numbering stands.
# B1: wild-type NgR: Wild-type full-length human NgR protein (protein, listed as Homo sapiens)
# chain: MKRASAGGSRLLAWVLWLQAWQVAAPCPGACVCYNEPKVTTSCPQQGLQAVPVGIPAASQRIFLHGNRISHVPAASFRACRNLTILWLHSNVLARIDAAAFTGLALLEQLDLSDNAQLRSVDPATFHGLGRLHTLHLDRCGLQELGPGLFRGLAALQYLYLQDNALQALPDDTFRDLGNLTHLFLHGNRISSVPERAFRGLHSLDRLLLHQNRVAHVHPHAFRDLGRLMTLYLFANNLSALPTEALAPLRALQYLRLNDNPWVCDCRARPLWAWLQKFRGSSSEVPCSLPQRLAGRDLKRLAANDLQGCAVATGPYHPIWTGRATDEEPLGLPKCCQPDAADKASVLEPGRPASAGNALKGRVPPGDSPPGNGSGPRHINDSPFGTLPGSAEPPLTAVRPEGSEPPGFPTSGPRRRPGCSRKNRTRSHCRLGQAGSGGGGTGDSEGSGALPSLTCSLTPLGLALVLWTVLGPC
# B2: NgR-R377Q: Full length human NgR R377Q mutant protein (protein)
# chain: B1 chain with R377Q
# modifications: Human NgR R377Q mutant
# notes: Full length human NgR R377Q mutant protein
# Experiments:
# [1] = test system: E13 chick DRG growth cones; experiment: Nogo-induced growth cone collapse in E13 chick DRG neurons overexpressing NgR proteins; type: cell-based; details: E13 DRG cells with endogenous NgR; 100 μM Nogo-66 (FIG. 2 legend)
# Procedure: (§1) FIG. 2 quantifies collapsed E7 (A) or E13 (B) chick DRG growth cones expressing the indicated proteins and exposed (dark) or not exposed (light) to 100 μM Nogo-66.
# At E13, DRG neurons express NgR and respond to Nogo with growth cone collapse that is not altered by overexpression of wild-type NgR. (FIG. 2B). […] (FIG. 2B). Thus, NgR-R377Q is a dominant negative protein.
# [2] = test system: E7 chick DRG growth cones; experiment: Nogo-induced growth cone collapse in E7 chick DRG neurons expressing NgR proteins; type: cell-based; details: for growth cone collapse in the presence of Nogo: E7 DRG cells expressing the protein from a viral vector, 100 μM Nogo-66 (FIG. 2 legend)
# Procedure: as §1
# The signaling ability of the NgR mutant proteins was directly assessed by expressing the proteins in chick DRG neurons and monitoring Nogo-induced growth cone collapse. […] (FIG. 2A).
molecule,measurement,setting,value
B1,effect of overexpression on extent of Nogo-induced growth cone collapse,[1],not altered
same,growth cone collapse in the presence of Nogo,[2],exhibited growth cone collapse in the presence of Nogo
B2,effect of overexpression on extent of Nogo-induced growth cone collapse,[1],significantly decreased
same,growth cone collapse in the presence of Nogo,[2],did not
same,signaling ability (signal transduction),"[2]; E7 DRG cells expressing the protein, Nogo-induced growth cone collapse as readout",inactive in signal transduction
